Experimental data: patent US20070036796A1

Biological target: human CCR5 (human) (UniProt P51681)
Test: cell-based or functional assay

Sequence of human CCR5 (human) (P51681 whole entry): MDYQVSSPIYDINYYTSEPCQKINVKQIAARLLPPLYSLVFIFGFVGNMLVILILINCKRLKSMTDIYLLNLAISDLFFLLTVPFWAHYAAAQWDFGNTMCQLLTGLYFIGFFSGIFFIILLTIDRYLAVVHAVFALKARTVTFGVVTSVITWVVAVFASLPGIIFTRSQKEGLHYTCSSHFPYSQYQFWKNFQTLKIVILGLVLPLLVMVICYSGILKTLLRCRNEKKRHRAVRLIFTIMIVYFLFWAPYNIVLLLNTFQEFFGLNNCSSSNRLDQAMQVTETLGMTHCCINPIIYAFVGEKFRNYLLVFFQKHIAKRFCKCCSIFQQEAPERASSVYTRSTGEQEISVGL

## Pharmingen 2D7 (CD 195; Cat. Nr. 555990) (antibody)
  IC50, PhenoSenseHIV assay (ViroLogic) using JRCSF strain: 1.4 µg/ml
  IC50, inhibition of HIV growth in human PBMC, JRCSF (p24 ELISA): 0.271 µg/mL
  IC50, inhibition of HIV growth in human PBMC, Nl-Bal (p24 ELISA): 0.076 µg/mL
